Measurements from article PMC6232179 (2018).

T1: His-tagged ER luminal domain of IRE1α (IRE1-NLD-His6-KDEL) (red fluorescent tag, covalently labelled (only in the MST of Figure 4C))
T1 chain: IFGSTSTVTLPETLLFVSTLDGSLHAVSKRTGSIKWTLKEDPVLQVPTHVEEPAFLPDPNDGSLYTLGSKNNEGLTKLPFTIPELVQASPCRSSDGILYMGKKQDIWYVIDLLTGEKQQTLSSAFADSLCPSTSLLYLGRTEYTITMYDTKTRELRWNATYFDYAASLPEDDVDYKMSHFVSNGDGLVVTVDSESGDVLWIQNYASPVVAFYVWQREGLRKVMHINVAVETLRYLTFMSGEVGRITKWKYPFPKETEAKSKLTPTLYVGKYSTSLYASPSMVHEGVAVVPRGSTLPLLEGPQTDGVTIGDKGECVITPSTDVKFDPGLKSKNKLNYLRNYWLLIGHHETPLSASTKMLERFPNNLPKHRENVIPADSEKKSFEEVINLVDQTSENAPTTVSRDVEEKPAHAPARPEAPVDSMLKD

B1: BiP (protein)
chain: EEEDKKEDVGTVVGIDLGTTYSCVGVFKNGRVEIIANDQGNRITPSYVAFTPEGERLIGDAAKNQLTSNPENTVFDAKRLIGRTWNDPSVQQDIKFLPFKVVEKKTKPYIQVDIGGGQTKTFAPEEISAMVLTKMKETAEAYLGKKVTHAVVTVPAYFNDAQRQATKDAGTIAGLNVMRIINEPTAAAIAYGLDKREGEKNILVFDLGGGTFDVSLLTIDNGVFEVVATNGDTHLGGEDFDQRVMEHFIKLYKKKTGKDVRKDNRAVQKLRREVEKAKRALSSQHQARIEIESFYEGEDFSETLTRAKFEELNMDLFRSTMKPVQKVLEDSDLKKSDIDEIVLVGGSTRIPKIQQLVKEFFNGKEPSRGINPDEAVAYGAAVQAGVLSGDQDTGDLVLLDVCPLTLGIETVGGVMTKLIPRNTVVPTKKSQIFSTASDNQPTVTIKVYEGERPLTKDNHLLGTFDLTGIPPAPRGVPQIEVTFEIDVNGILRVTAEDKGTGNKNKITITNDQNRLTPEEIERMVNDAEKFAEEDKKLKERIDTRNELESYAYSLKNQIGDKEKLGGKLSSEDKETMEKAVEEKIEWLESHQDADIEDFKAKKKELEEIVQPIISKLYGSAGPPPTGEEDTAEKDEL
B2: PDIA6 (protein)
chain: LYSSSDDVIELTPSNFNREVIQSDSLWLVEFYAPWCGHCQRLTPEWKKAATALKDVVKVGAVDADKHHSLGGQYGVQGFPTIKIFGSNKNRPEDYQGGRTGEAIVDAALSALRQLVKDRLGGRSGGYSSGKQGRSDSSSKKDVIELTDDSFDKNVLDSEDVWMVEFYAPWCGHCKNLEPEWAAAASEVKEQTKGKVKLAAVDATVNQVLASRYGIRGFPTIKIFQKGESPVDYDGGRTRSDIVSRALDLFSDNAPPPELLEIINEDIAKRTCEEHQLCVVAVLPHILDTGAAGRNSYLEVLLKLADKYKKKMWGWLWTEAGAQSELETALGIGGFGYPAMAAINARKMKFALLKGSFSEQGINEFLRELSFGRGSTAPVGGGAFPTIVEREPWDGRDGELPVEDDIDLSDVELDDLGKDEL
B3: COX-2 (prostaglandin endoperoxide synthase 2, PTGS2), purified His-tagged protein (enzyme)
chain: ANPCCSHPCQNRGVCMSVGFDQYKCDCTRTGFYGENCSTPEFLTRIKLFLKPTPNTVHYILTHFKGFWNVVNNIPFLRNAIMSYVLTSRSHLIDSPPTYNADYGYKSWEAFSNLSYYTRALPPVPDDCPTPLGVKGKKQLPDSNEIVEKLLLRRKFIPDPQGSNMMFAFFAQHFTHQFFKTDHKRGPAFTNGLGHGVDLNHIYGETLARQRKLRLFKDGKMKYQIIDGEMYPPTVKDTQAEMIYPPQVPEHLRFAVGQEVFGLVPGLMMYATIWLREHNRVCDVLKQEHPEWGDEQLFQTSRLILIGETIKIVIEDYVQHLSGYHFKLKFDPELLFNKQFQYQNRIAAEFNTLYHWHPLLPDTFQIHDQKYNYQQFIYNNSILLEHGITQFVESFTRQIAGRVAGGRNVPPAVQKVSQASIDQSRQMKYQSFNEYRKRFMLKPYESFEELTGEKEMSAELEALYGDIDAVELYPALLVEKPRPDAIFGETMVEVGAPFSLKGLMGNVICSPAYWKPSTFGGEVGFQIINTASIQSLICNNVKGCPFTSFSVPDPELIKTVTINASSSRSGLDDINPTVLLKERSTEL
modifications: red fluorescent tag, covalently labelled (only in the MST of Figure 4B)

Assays:
[1] = molecular target: T1, His-tagged ER luminal domain of IRE1α …; experiment: SPR
[2] = molecular target: T1, His-tagged ER luminal domain of IRE1α …; experiment: MST; COX-2 labelled
[3] = molecular target: T1, His-tagged ER luminal domain of IRE1α …; experiment: MST; IRE1-NLD labelled

| Binder | Kd [1] [nM] | Kd [2] [nM] | Kd [3] [nM] |
| --- | --- | --- | --- |
| B1 | 1660 |  |  |
| B2 | 3530 |  |  |
| B3 |  | 138 | 155 |
